Test results: US20220112288A1
Each block holds one substance with its values, some of them ahead of it.

Columns and labels:
[1] = molecular target: human CD4 on cells (SKW3 cells; human PBMCs) (human) (UniProt P01730); assay: SKW3 FACS binning, OKT4-A488 on SKW3 cells without competing supernatant (background 2163)
[2] = molecular target: human CD4 on cells (SKW3 cells; human PBMCs) (human) (UniProt P01730); assay: SKW3 FACS binning, RPA-T4-PE-Dazzle 594 on SKW3 cells without competing supernatant (background 783)
[3] = molecular target: human CD4 on cells (SKW3 cells; human PBMCs) (human) (UniProt P01730); assay: SKW3 FACS binning, OKT4a on SKW3 cells, anti-hu A647 secondary, without competing supernatant (background 5000)

Max Binding [1]: 8200
Substance: Mouse anti-human CD4 (OKT4), Alexa Fluor 488 conjugated (antibody)

Max Binding [2]: 15000
Substance: Mouse anti-human CD4 (RPA-T4), PE-Dazzle 594 conjugated (antibody)

Max Binding [3]: 35000
Substance: Human anti-human CD4 (OKT4a) (antibody)
